Patent US20140271682, “HUMAN HOMEOBOX GENE VENTX AND MACROPHAGE TERMINAL DIFFERENTIATION AND ACTIVATION, COMPOSITIONS AND METHODS THEREOF” (published 2014)

Target: T1, VentX (Homo sapiens, UniProt O95231 SEQ:1-258)
T1 sequence: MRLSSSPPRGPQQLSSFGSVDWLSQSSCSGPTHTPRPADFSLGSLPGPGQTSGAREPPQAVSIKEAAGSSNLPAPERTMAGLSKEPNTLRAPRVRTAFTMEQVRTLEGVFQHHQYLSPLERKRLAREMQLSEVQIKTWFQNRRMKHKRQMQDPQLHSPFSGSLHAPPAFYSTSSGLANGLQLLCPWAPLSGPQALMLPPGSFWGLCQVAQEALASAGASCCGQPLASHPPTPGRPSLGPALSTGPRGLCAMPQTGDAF
Assay: EMSA; fluorescence-based EMSA kit
Conditions: tags: pCS2-VentX, TNT reticulocyte lysate
Experimental: Lysate Systems, Promega). […] Gel shift assay was performed with a fluorescence-based Electrophoretic Mobility Shift Assay (EMSA) Kit from Invitrogen following the manufacturer's instruction. The following double-stranded oligonucleotides were used in the experiments: 5′-[…]-3′ (wild type M-CSFR probe, putative homeodomain binding sequence is in bold and underlined); 5′-[…]-3′ (mutant M-CSFR);

B1: M-CSFR promoter probe wild type (dsDNA)
DNA 1: CTGCGTCTCTAAAATAATAATAATAAATTTTTAAAAGATATGC
DNA 2: GCATATCTTTTAAAAATTTATTATTATTATTTTAGAGACGCAG
B1: binds.
